How the values were obtained:
UGDH T325D = UGDH T325D obligate dimer; cited from earlier work
[1] = Thermofluor Stability Assay (thermal denaturation) of purified UGDH; assay type: physicochemical, human; conditions: for Tm Apo: apo enzyme; for Tm Holo: holoenzyme complex (substrate and cofactor)
Source text: We first generated the UGDH S316 point mutants in a bacterial construct that expressed the proteins with a six-histidine fusion to facilitate purification by nickel affinity chromatography as we have done previously. […] However, UGDH S316D yields were somewhat lower as a result of protein precipitation following purification. To compare the intrinsic stability of the S316 point mutants, we used a modified version of the Thermofluor Stability Assay, which we have used previously as a preliminary indicator of UGDH quaternary assembly. The UGDH WT and UGDH S316A enzymes had significant increases in melting temperature (Tm) upon addition of either substrate or cofactor and were stabilized by almost 20°C in the holoenzyme complex as expected.
Purified S316 mutants were compared to the UGDH WT enzyme using the following approaches as previously described. Enzymatic activity was evaluated by steady state kinetics in the presence and absence of the endogenous inhibitor UDP-Xylose to compare Michaelis constants and IC50 values. Intrinsic stability was assessed by thermal denaturation and quaternary structure was determined by size exclusion chromatography. Binding of UDP-Xylose to recombinant UGDH and mutants was measured by isothermal titration calorimetry using the MicroCal PEAQ-ITC (Malvern Panalytical). UGDH WT (50 μM in 0.1 M sodium phosphate buffer, pH 7.4) was placed in the cell, with UDP-Xyl (250 μM) in the syringe. Binding heats were corrected for the heat of dilution and analyzed using the MicroCal PEAQ-ITC Analysis Software, employing a single-site binding model to determine Kd values.

Molecule	Vmax values (UGDH T325D) [nmol/min/mg]	Tm Apo [1] [°C]	Tm Holo [1] [°C]
UGDH T325D: obligate dimeric UGDH mutant, T325 to aspartate (protein, UniProt O60701 1-494, looked up, variant T325D) UDP-glucose 6-dehydrogenase: MFEIKKICCIGAGYVGGPTCSVIAHMCPEIRVTVVDVNESRINAWNSPTLPIYEPGLKEVVESCRGKNLFFSTNIDDAIKEADLVFISVNTPTKTYGMGKGRAADLKYIEACARRIVQNSNGYKIVTEKSTVPVRAAESIRRIFDANTKPNLNLQVLSNPEFLAEGTAIKDLKNPDRVLIGGDETPEGQRAVQALCAVYEHWVPREKILTTNTWSSELSKLAANAFLAQRISSINSISALCEATGADVEEVATAIGMDQRIGNKFLKASVGFGGSCFQKDVLNLVYLCEALNLPEVARYWQQVIDMNDYQRRRFASRIIDSLFNDVTDKKIAILGFAFKKDTGDTRESSSIYISKYLMDEGAHLHIYDPKVPREQIVVDLSHPGVSEDDQVSRLVTISKDPYEACDGAHAVVICTEWDMFKELDYERIHKKMLKPAFIFDGRRVLDGLHNELQTIGFQIETIGKKVSSKRIPYAPSGEIPKFSLQDPPNKKPKV	65 to 75	–	–
S316A: purified recombinant human UGDH, phosphodeficient serine 316 to alanine point mutant (protein, left off: His6, end not stated, state not stated, purified recombinant human UGDH, phosphodeficient serine 316 to alanine point mutant) MFEIKKICCIGAGYVGGPTCSVIAHMCPEIRVTVVDVNESRINAWNSPTLPIYEPGLKEVVESCRGKNLFFSTNIDDAIKEADLVFISVNTPTKTYGMGKGRAADLKYIEACARRIVQNSNGYKIVTEKSTVPVRAAESIRRIFDANTKPNLNLQVLSNPEFLAEGTAIKDLKNPDRVLIGGDETPEGQRAVQALCAVYEHWVPREKILTTNTWSSELSKLAANAFLAQRISSINSISALCEATGADVEEVATAIGMDQRIGNKFLKASVGFGGSCFQKDVLNLVYLCEALNLPEVARYWQQVIDMNDYQRRRFAARIIDSLFNTVTDKKIAILGFAFKKDTGDTRESSSIYISKYLMDEGAHLHIYDPKVPREQIVVDLSHPGVSEDDQVSRLVTISKDPYEACDGAHAVVICTEWDMFKELDYERIHKKMLKPAFIFDGRRVLDGLHNELQTIGFQIETIGKKVSSKRIPYAPSGEIPKFSLQDPPNKKPKV	–	49±0.2	66±3.0
S316D: purified recombinant human UGDH, phosphomimetic serine 316 to aspartate point mutant (protein, left off: His6, end not stated, state not stated, purified recombinant human UGDH, phosphomimetic serine 316 to aspartate point mutant) MFEIKKICCIGAGYVGGPTCSVIAHMCPEIRVTVVDVNESRINAWNSPTLPIYEPGLKEVVESCRGKNLFFSTNIDDAIKEADLVFISVNTPTKTYGMGKGRAADLKYIEACARRIVQNSNGYKIVTEKSTVPVRAAESIRRIFDANTKPNLNLQVLSNPEFLAEGTAIKDLKNPDRVLIGGDETPEGQRAVQALCAVYEHWVPREKILTTNTWSSELSKLAANAFLAQRISSINSISALCEATGADVEEVATAIGMDQRIGNKFLKASVGFGGSCFQKDVLNLVYLCEALNLPEVARYWQQVIDMNDYQRRRFADRIIDSLFNTVTDKKIAILGFAFKKDTGDTRESSSIYISKYLMDEGAHLHIYDPKVPREQIVVDLSHPGVSEDDQVSRLVTISKDPYEACDGAHAVVICTEWDMFKELDYERIHKKMLKPAFIFDGRRVLDGLHNELQTIGFQIETIGKKVSSKRIPYAPSGEIPKFSLQDPPNKKPKV	–	47±1.0	63±0.3
WT: purified recombinant human wild-type UGDH (protein, left off: His6, end not stated, state not stated, purified recombinant human wild-type UGDH) MFEIKKICCIGAGYVGGPTCSVIAHMCPEIRVTVVDVNESRINAWNSPTLPIYEPGLKEVVESCRGKNLFFSTNIDDAIKEADLVFISVNTPTKTYGMGKGRAADLKYIEACARRIVQNSNGYKIVTEKSTVPVRAAESIRRIFDANTKPNLNLQVLSNPEFLAEGTAIKDLKNPDRVLIGGDETPEGQRAVQALCAVYEHWVPREKILTTNTWSSELSKLAANAFLAQRISSINSISALCEATGADVEEVATAIGMDQRIGNKFLKASVGFGGSCFQKDVLNLVYLCEALNLPEVARYWQQVIDMNDYQRRRFASRIIDSLFNTVTDKKIAILGFAFKKDTGDTRESSSIYISKYLMDEGAHLHIYDPKVPREQIVVDLSHPGVSEDDQVSRLVTISKDPYEACDGAHAVVICTEWDMFKELDYERIHKKMLKPAFIFDGRRVLDGLHNELQTIGFQIETIGKKVSSKRIPYAPSGEIPKFSLQDPPNKKPKV	–	50±0.4	68±1.7
